Results reported in patent US11306156.
Where “and” joins values, the source holds several entries; their conditions need not be identical. Equal entries are not always repeated. Values belong to the substance of their own block, whether it stands above or below them.

What was measured:
[1] = molecular target: D3H44 light chain Q124E_Q160E_T180E (Kabat) with N-terminal HA or FLAG tag; test: LCCA, SPR read-out of light-chain tags; light-chain DNA 1:9 normalized to 1:1; competing light chain m21
[2] = molecular target: D3H44 light chain Q124R_T178R (Kabat) with N-terminal HA or FLAG tag; test: LCCA, SPR read-out of light-chain tags; light-chain DNA 1:9 normalized to 1:1; competing light chain m17
[3] = molecular target: D3H44 light chain Q124E_Q160E_T180E (Kabat) with N-terminal HA or FLAG tag; test: LCCA, SPR read-out of light-chain tags; light-chain DNA 1:3 normalized to 1:1; competing light chain m20
[4] = molecular target: D3H44 light chain Q124E_Q160E_T180E (Kabat) with N-terminal HA or FLAG tag; test: LCCA, SPR read-out of light-chain tags; light-chain DNA 1:3 normalized to 1:1; competing light chain m16
[5] = molecular target: D3H44 light chain Q124E_Q160E_T180E (Kabat) with N-terminal HA or FLAG tag; test: LCCA, SPR read-out of light-chain tags; light-chain DNA 1:3 normalized to 1:1; competing light chain m21
[6] = molecular target: D3H44 light chain Q124E_Q160E_T180E (Kabat) with N-terminal HA or FLAG tag; test: LCCA, SPR read-out of light-chain tags; light-chain DNA 1:3 normalized to 1:1; competing light chain m18
[7] = molecular target: D3H44 light chain T178R (Kabat) with N-terminal HA or FLAG tag; test: LCCA, SPR read-out of light-chain tags; light-chain DNA 1:3 normalized to 1:1; competing light chain m17
[8] = molecular target: D3H44 light chain Q124R_T178R (Kabat) with N-terminal HA or FLAG tag; test: as above
[9] = molecular target: D3H44 light chain Q124R_Q160K_T178R (Kabat) with N-terminal HA or FLAG tag; test: as above
[10] = molecular target: D3H44 light chain Q124K_T178R (Kabat) with N-terminal HA or FLAG tag; test: as above
[11] = molecular target: D3H44 light chain T178R (Kabat) with N-terminal HA or FLAG tag; test: LCCA, SPR read-out of light-chain tags; light-chain DNA 1:3 normalized to 1:1; competing light chain m19
[12] = molecular target: D3H44 light chain Q124E_Q160E_T180E (Kabat) with N-terminal HA or FLAG tag; test: LCCA, SPR read-out of light-chain tags; light-chain DNA 1:3 normalized to 1:1; competing light chain m26
[13] = molecular target: D3H44 light chain Q124E_T180E (Kabat) with N-terminal HA or FLAG tag; test: LCCA, SPR read-out of light-chain tags; light-chain DNA 1:3 normalized to 1:1; competing light chain m18
[14] = molecular target: D3H44 light chain Q124R_T178K (Kabat) with N-terminal HA or FLAG tag; test: LCCA, SPR read-out of light-chain tags; light-chain DNA 1:3 normalized to 1:1; competing light chain m17
[15] = molecular target: D3H44 light chain Q124E_S131T_T178F_T180E (Kabat) with N-terminal HA or FLAG tag; test: LCCA, SPR read-out of light-chain tags; light-chain DNA 1:3 normalized to 1:1; competing light chain m21
[16] = molecular target: D3H44 light chain Q124R_T178R (Kabat) with N-terminal HA or FLAG tag; test: LCCA, SPR read-out of light-chain tags; light-chain DNA 1:3 normalized to 1:1; competing light chain m22
[17] = molecular target: D3H44 light chain Q124E_S176L_T180E (Kabat) with N-terminal HA or FLAG tag; test: LCCA, SPR read-out of light-chain tags; light-chain DNA 1:3 normalized to 1:1; competing light chain m20
[18] = molecular target: D3H44 light chain Q124E_S131T_T178F_T180E (Kabat) with N-terminal HA or FLAG tag; test: as above
[19] = molecular target: D3H44 light chain Q124E_S131T_T178Y_T180E (Kabat) with N-terminal HA or FLAG tag; test: as above
[20] = molecular target: D3H44 light chain Q124R_Q160K_T178R (Kabat) with N-terminal HA or FLAG tag; test: LCCA, SPR read-out of light-chain tags; light-chain DNA 1:3 normalized to 1:1; competing light chain m28
[21] = molecular target: D3H44 light chain Q124R_Q160K_T178R (Kabat) with N-terminal HA or FLAG tag; test: LCCA, SPR read-out of light-chain tags; light-chain DNA 1:3 normalized to 1:1; competing light chain m22
[22] = molecular target: D3H44 light chain Q124R_Q160K_T178R (Kabat) with N-terminal HA or FLAG tag; test: LCCA, SPR read-out of light-chain tags; light-chain DNA 1:3 normalized to 1:1; competing light chain m29
[23] = molecular target: D3H44 light chain Q124R (Kabat) with N-terminal HA or FLAG tag; test: LCCA, SPR read-out of light-chain tags; light-chain DNA 1:3 normalized to 1:1; competing light chain m24
[24] = molecular target: D3H44 light chain Q124E_V133E_Q160F (Kabat) with N-terminal HA or FLAG tag; test: LCCA, SPR read-out of light-chain tags; light-chain DNA 1:3 normalized to 1:1; competing light chain m23
[25] = molecular target: tissue factor (TF) antigen (UniProt P13726); test: SPR; Fab captured by anti-His, TF as analyte; LCCA set 9054
[26] = molecular target: tissue factor (TF) antigen (UniProt P13726); test: SPR; Fab captured by anti-His, TF as analyte; LCCA set 9053
[27] = molecular target: tissue factor (TF) antigen (UniProt P13726); test: SPR; Fab captured by anti-His, TF as analyte; LCCA set 9058
[28] = molecular target: tissue factor (TF) antigen (UniProt P13726); test: SPR (ProteOn), Fab captured on anti-penta-His, TF as analyte, 1:1 fit
[29] = molecular target: tissue factor (TF) antigen (UniProt P13726); test: SPR (ProteOn), Fab captured on anti-penta-His, TF as analyte, 1:1 fit; estimated value (*) taken from the same Fab with another L chain tag
[30] = molecular target: tissue factor (TF) antigen (UniProt P13726); test: SPR; Fab captured by anti-His, TF as analyte; LCCA set 9819
[31] = molecular target: tissue factor (TF) antigen (UniProt P13726); test: SPR; Fab captured by anti-His, TF as analyte; LCCA set 9820
[32] = molecular target: tissue factor (TF) antigen (UniProt P13726); test: SPR; Fab captured by anti-His, TF as analyte; LCCA set 9822
[33] = molecular target: tissue factor (TF) antigen (UniProt P13726); test: SPR; Fab captured by anti-His, TF as analyte; LCCA set 9823

Substance: D3H44 Fab heavy chain L143E_K145T_Q179E (Kabat) with C-terminal ABD2-His6 tag
- H1L1:H1L2 normalized median ratio [11]: 60%
- H1L1:H1L2 normalized median scalar value ln(r1/f1) [11]: 0.41
- H1L1:H1L2 normalized median ratio [3]: 16%
- H1L1:H1L2 normalized median ratio [4]: 12% and 17%
- H1L1:H1L2 normalized median ratio [12]: 17%
- H1L1:H1L2 normalized median ratio [13]: 40%
- H1L1:H1L2 normalized median ratio [6]: 11%
- H1L1:H1L2 normalized median ratio [7]: 89%
- H1L1:H1L2 normalized median scalar value ln(r1/f1) [7]: 2.14
- H1L1:H1L2 normalized median ratio [9]: 84%
- H1L1:H1L2 normalized median scalar value ln(r1/f1) [9]: 1.65
- H1L1:H1L2 normalized median ratio [14]: 83%
- H1L1:H1L2 normalized median scalar value ln(r1/f1) [14]: 1.62
- H1L1:H1L2 normalized median ratio [10]: 88%
- H1L1:H1L2 normalized median scalar value ln(r1/f1) [10]: 2

Substance: D3H44 Fab heavy chain L143E_K145T_Q179E_S188L (Kabat) with C-terminal ABD2-His6 tag
- H1L1:H1L2 normalized median ratio [15]: 23%
- H1L1:H1L2 normalized median ratio [16]: 77%
- H1L1:H1L2 normalized median scalar value ln(r1/f1) [16]: 1.19

Substance: D3H44 Fab heterodimer, H A139G_Q179K_V190A / L Q124E_L135W_Q160E_T180E (H1L1 Fab of LCCA sets 9053, 9054)
- Change in KD with respect to wild type (-(log(KD design) - log(KD wt))) [25]: 0.05
- Kd [25]: 0.14 nM
- Change in KD with respect to wild type (-(log(KD design) - log(KD wt))) [26]: 0.05
- Kd [26]: 0.14 nM

Substance: D3H44 Fab heterodimer, H A139W_L143E_K145T_Q179E / L F116A_Q124R_L135V (H1L1 Fab of LCCA set 9058)
- Change in KD with respect to wild type (-(log(KD design) - log(KD wt))) [27]: 0.12
- Kd [27]: 0.12 nM

Substance: D3H44 Fab heterodimer, H L143E_K145T_S188L / L Q124R
- Change in KD with respect to wild type (-(log(KD design) - log(KD wt))) [28]: -0.12
- Kd [28]: 0.21 nM
- Change in KD with respect to wild type (-(log(KD design) - log(KD wt))) [29]: -0.12
- Kd [29]: 0.21 nM

Substance: D3H44 Fab heterodimer, H Q39E_L143E_K145T_H172R_Q179E / L Q38R_Q124R_Q160K_T178R (H1L1 Fab of LCCA set 9819)
- Change in KD with respect to wild type (-(log(KD design) - log(KD wt))) [30]: 0.03
- Kd [30]: 0.15 nM

Substance: D3H44 Fab heterodimer, H Q39E_L143E_K145T_Q179E / L Q38R_Q124R_Q160K_T178R (H1L1 Fab of LCCA set 9820)
- Change in KD with respect to wild type (-(log(KD design) - log(KD wt))) [31]: -0.1
- Kd [31]: 0.2 nM

The remaining lines, values ahead:

- H1L1:H1L2 normalized median ratio [1]: 18%
- H1L1:H1L2 normalized median ratio [2]: 82%
- H1L1:H1L2 normalized median scalar value ln(r1/f1) [2]: 1.55
- H1L1:H1L2 normalized median ratio [3]: 16%
- H1L1:H1L2 normalized median ratio [4]: 14%
- H1L1:H1L2 normalized median ratio [5]: 13%
- H1L1:H1L2 normalized median ratio [6]: 24%
- H1L1:H1L2 normalized median ratio [7]: 76%
- H1L1:H1L2 normalized median scalar value ln(r1/f1) [7]: 1.13
- H1L1:H1L2 normalized median ratio [8]: 87%
- H1L1:H1L2 normalized median scalar value ln(r1/f1) [8]: 1.9
- H1L1:H1L2 normalized median ratio [9]: 84%
- H1L1:H1L2 normalized median scalar value ln(r1/f1) [9]: 1.68
- H1L1:H1L2 normalized median ratio [10]: 86%
- H1L1:H1L2 normalized median scalar value ln(r1/f1) [10]: 1.78
Substance: D3H44 Fab heavy chain L143E_K145T_Q179D (Kabat) with C-terminal ABD2-His6 tag

- H1L1:H1L2 normalized median ratio [17]: 43%
- H1L1:H1L2 normalized median ratio [18]: 41%
- H1L1:H1L2 normalized median ratio [19]: 26%
- H1L1:H1L2 normalized median ratio [20]: 57%
- H1L1:H1L2 normalized median scalar value ln(r1/f1) [20]: 0.28
- H1L1:H1L2 normalized median ratio [21]: 59%
- H1L1:H1L2 normalized median scalar value ln(r1/f1) [21]: 0.37
- H1L1:H1L2 normalized median ratio [22]: 74%
- H1L1:H1L2 normalized median scalar value ln(r1/f1) [22]: 1.03
Substance: D3H44 Fab heavy chain L143E_K145T_S188L (Kabat) with C-terminal ABD2-His6 tag

- H2L2:H2L1 normalized median ratio [23]: 17%
- H2L2:H2L1 normalized median ratio [24]: 83%
Substance: D3H44 Fab heavy chain L143R (Kabat) with C-terminal ABD2-His6 tag

- Change in KD with respect to wild type (-(log(KD design) - log(KD wt))) [32]: 0.17
- Kd [32]: 0.11 nM
Substance: D3H44 Fab heterodimer, H Q39R_D146G_Q179K / L Q38E_Q124E_Q160E_T180E (H1L1 Fab of LCCA set 9822)

- Change in KD with respect to wild type (-(log(KD design) - log(KD wt))) [33]: -0.18
- Kd [33]: 0.24 nM
Substance: D3H44 Fab heterodimer, H Q39R_H172R_Q179K / L Q38E_Q124E_Q160E_T180E (H1L1 Fab of LCCA set 9823)
